Experimental data as given in patent publication US8114831B2, “Guanylate cyclase receptor agonists for the treatment of tissue inflammation and carcinogenesis” (Synergy Pharmaceuticals Inc., priority 2001, dated 2012).
Positions of bridges follow the written chain, without caps; N, C: chain ends. No end group written: not given here.

What was measured:
[1] = biological target: T1, guanylate cyclase receptor (Homo sapiens, UniProt P25092); experiment: T84 cell-based assay for determining the intracellular levels of cGMP; details: for ability to enhance intracellular levels of cGMP (ranking in words): T84 cell-based assay, text summary of Table 4; for cGMP Level (intracellular cGMP level observed in T84 cells): 1 micromolar peptide agonist, 30 minutes
T1 construct: host or cells: T84 human colon carcinoma cells
Procedure: Cell Culture: Human T84 colon carcinoma cells were obtained from the American Type Culture Collection at passage 52. Cells were grown in a 1:1 mixture of Ham's F-12 medium and Dulbecco's modified Eagle's medium (DMEM) supplemented with 10% fetal bovine serum, 100 U penicillin/ml, and 100 μg/ml streptomycin. The cells were fed fresh medium every third day and split at a confluence of approximately 80%.
(§1) T84 cell-based assay for determining the intracellular levels of cGMP: Peptide analogs were custom synthesized by Multiple Peptide Systems, San Diego, Calif., and by Princeton Biomolecules, Langhorne, Pa. Biological activity of the synthetic peptides was assayed as previously reported (15). Briefly, the confluent monolayers of T-84 cells in 24-well plates were washed twice with 250 μl of DMEM containing 50 mM HEPES (pH 7.4), pre-incubated at 37° C. for 10 min with 250 μl of DMEM containing 50 mM HEPES (pH 7.4) and 1 mM isobutylmethylxanthine (IBMX), followed by incubation with peptide analogs (0.1 nM to 10 μM) for 30 min. The medium was aspirated, and the reaction was terminated by the addition of 3% perchloric acid. Following centrifugation, and neutralization with 0.1 N NaOH, the supernatant was used directly for measurements of cGMP using an ELISA kit (Caymen Chemical, Ann Arbor, Mich.).

[2] = Heat stability: peptide solutions heated at 95° C., then tested for biological activity in the T84 cell-based assay; type: physicochemical; details: 10 micromolar solution, read-out T84 cell-based assay
Procedure: as §1
To examine heat stability, 10 micromolar solutions of peptide analogs were heated at 95° C. for up to 90 minutes. At specific times during the treatment, samples were tested for their biological activity in the T84 cell-based assay. […] Based on energy calculations and 3D structure, we expected that the negatively charged carboxyl group of the side chain in position 3 of SEQ ID NO:1 specifically interacts with a positively charged binding site on the receptor. […] At the same time, to ensure efficiency of this particular interaction, an entire system of the long-range electrostatic interactions between ligand and receptor should be well balanced. Since the Glu^2 side chain presents more conformational possibilities compared to the Asp^2 side chain, this balance may be slightly changed in SP302 (double substitution of Asp's for Glu's) compared to SP304 (single substitution of Asp^3 for Glu^3). Indeed, biological activity of SP 304 is the best amongst the analogs evaluated.

[3] = biological target: T1, guanylate cyclase receptor; experiment: T84 cell-based assay for determining the intracellular levels of cGMP; details: for intracellular production of cGMP at different pH values: pH 5 to 7

T1 sequence (P25092 24-1073): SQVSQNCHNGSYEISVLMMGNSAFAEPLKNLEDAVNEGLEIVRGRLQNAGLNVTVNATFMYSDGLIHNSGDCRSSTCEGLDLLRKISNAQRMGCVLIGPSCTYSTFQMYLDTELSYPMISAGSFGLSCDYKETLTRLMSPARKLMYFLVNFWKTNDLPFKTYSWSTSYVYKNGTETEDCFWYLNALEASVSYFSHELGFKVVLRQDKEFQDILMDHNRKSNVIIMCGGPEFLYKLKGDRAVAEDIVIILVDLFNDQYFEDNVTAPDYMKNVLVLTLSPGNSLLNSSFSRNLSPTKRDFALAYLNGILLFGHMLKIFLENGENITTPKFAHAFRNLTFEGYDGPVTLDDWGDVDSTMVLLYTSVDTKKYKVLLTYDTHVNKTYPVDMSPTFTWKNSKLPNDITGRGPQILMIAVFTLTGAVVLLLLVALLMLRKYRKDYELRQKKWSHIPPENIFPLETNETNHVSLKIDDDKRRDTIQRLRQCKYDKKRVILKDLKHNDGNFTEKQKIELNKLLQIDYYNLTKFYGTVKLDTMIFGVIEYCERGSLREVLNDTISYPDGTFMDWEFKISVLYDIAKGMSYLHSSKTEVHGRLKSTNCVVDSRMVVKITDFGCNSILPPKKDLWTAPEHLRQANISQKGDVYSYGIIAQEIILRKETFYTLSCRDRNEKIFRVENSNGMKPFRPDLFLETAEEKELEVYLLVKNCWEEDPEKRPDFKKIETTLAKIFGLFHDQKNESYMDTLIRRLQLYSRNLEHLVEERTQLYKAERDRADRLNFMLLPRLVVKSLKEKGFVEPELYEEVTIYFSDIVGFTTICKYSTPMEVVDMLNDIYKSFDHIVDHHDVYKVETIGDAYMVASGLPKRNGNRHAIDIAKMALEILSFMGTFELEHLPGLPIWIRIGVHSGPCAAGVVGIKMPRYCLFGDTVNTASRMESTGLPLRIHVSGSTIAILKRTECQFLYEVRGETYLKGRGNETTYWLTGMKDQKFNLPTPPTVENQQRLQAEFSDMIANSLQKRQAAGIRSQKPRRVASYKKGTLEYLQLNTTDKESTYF

Substance	ability to enhance intracellular levels of cGMP (ranking in words) [1]	cGMP Level (intracellular cGMP level observed in T84 cells) ([1]; T84 cells)	intracellular cGMP level in combination with sulindac sulfone ([1]; T84 cells, combination with cGMP dependent phosphodiesterase inhibitor sulindac sulfone)	intracellular cGMP level in combination with Zaprinast ([1]; T84 cells, combination with cGMP dependent phosphodiesterase inhibitor zaprinast)	biological activity after heating for 60 minutes [2]	biological activity after heating for 90 minutes, relative to original value [2]	intracellular production of cGMP at different pH values [3]	enhancement of intracellular cGMP, comparison among peptides ([3]; pH between 6.5 and 7)
Asn^1 Asp^2 Glu^3 Cys^4 Glu^5 Leu^6 Cys^7 Val^8 Asn^9 Val^10 Ala^11 Cys^12 Thr^13 Gly^14 Cys^15 Leu^16 (NDECELCVNVACTGCL; disulfide 4-12, 7-15) [SP 304, [Glu^3]-UG, [4,12; 7,15] bicycle with two disulfide linkages]	greatest enhancement of intracellular cGMP	315 pmol/well	synergistic increases	synergistic increases	did not change significantly	remained unaltered	enhanced intracellular production of cGMP	greatest enhancement
bicyclo[4,12; 7,15]Asn^1-Asp^2-Asp^3-Cys^4-Glu^5-Leu^6-Cys^7-Val^8-Asn^9-Val^10-Ala^11-Cys^12-Thr^13-Gly^14-Cys^15-Leu^16 (NDDCELCVNVACTGCL; disulfide 4-12, 7-15; listed as Homo sapiens) [SP 301, human uroguanylin, parent compound, reference compound]	somewhat weaker	205 pmol/well	–	–	did not change significantly	about 80%	enhanced intracellular production of cGMP	–
[Glu^2, Glu^3]-UG (NEECELCVNVACTGCL; ends and bridges not checked; cysteine pairing not given here; UniProt Q16661 97-112, looked up, variant D2E D3E) [SP 302, uroguanylin analog, double substitution of Asp's for Glu's]	somewhat weaker	225 pmol/well	–	–	did not change significantly	about 80%	enhanced intracellular production of cGMP	–
SP 316: 14-residue peptide Glu Cys Glu Leu Cys Val Asn Val Ala Cys Thr Gly Cys Leu, positions 3-16, disulfides 4-12 and 7-15 (ECELCVNVACTGCL; disulfide 2-10, 5-13)	second in effectiveness	275 pmol/well	–	–	–	–	–	–
[Glu^2]-UG (NEDCELCVNVACTGCL; ends and bridges not checked; cysteine pairing not given here; UniProt Q16661 97-112, looked up, variant D2E) [SP 303, uroguanylin analog with Glu in position 2]	somewhat weaker	195 pmol/well	–	–	did not change significantly	about 80%	enhanced intracellular production of cGMP	–
